We go through one molecule from publication PMC12519199, “Molecular basis of SARS-CoV-2 proofreading enzyme–mediated resistance to remdesivir”.

For the data set, the target named is nsp12 (RdRp catalytic subunit);nsp7;nsp8 (SARS-CoV-2;SARS-CoV-2;SARS-CoV-2, UniProt P0DTD1;P0DTD1;P0DTD1 4393-5324;3860-3942;3943-4140, ||). In words: fluorescence polarization; higher affinity than T20P14-R. Particulars: protein: recombinant;recombinant;recombinant; tags: His6-Smt3 removed by Ulp1;His6-Smt3 removed by Ulp1;His6-Smt3 removed by Ulp1; copies: 1;1;2; label: 5'-FAM (FP); hairpin, UUCG loop, 5' overhang 5 nt. A general note: Fluorescence polarisation rises when a labelled molecule tumbles more slowly, as on binding a larger partner.

B1: T20P14-A (structured_RNA)
RNA: GGGAAUGGGAUUUUAAUAGCUUCGGCUAUUAAAAUCCCA
With B1, the binding result is recorded as “binds”.
